A short description of the series: Small angle X-ray scattering. The series is classed as physicochemical, M. tuberculosis. As to conditions: for Rg [from Guinier] / Rg [from P(r)]: BM29 ESRF, 10°C; for Rg [from Guinier]: 50 mM Tris pH 8.0, 200 mM NaCl, 2 mM βME; for Rg [from P(r)]: pH 8.0.

The source of these data is PMC7530888 (Nucleic Acids Research, 2020).

Values joined by “and” are separate entries in the source; they are usually repeats but may differ in a detail not shown here. Equal entries are not always repeated.

Consider “MtbLigA+Nicked DNA: MtbLigA in complex with 27-mer nicked DNA (S1)”, for which the “Rg [from Guinier]” value was found to be 4.49±0.07 nm and the “Rg [from P(r)]” value was found to be 4.49±0.06 nm.
With “MtbLigA: M. tuberculosis NAD^+-dependent DNA ligase A, full-length”, the “Rg [from Guinier]” value amounted to 5.22±0.08 nm; the “Rg [from P(r)]” value was 5.20 nm and 5.20±0.06 nm. Also, the “Rg in presence of nicked DNA” value (presence of nicked DNA substrate (S1), from P(r)) is recorded as 4.49 nm.
